Laboratory results taken from FireProtDB (doi:10.1021/bi00493a013).
Several values for one entry are separate records, joined by “and”; a condition that tells them apart may be missing. Equal values may be shown once.

Conditions: Rattus norvegicus, pH 7.2, 20 °C, CD, Potassium phosphate 20 mM, reversible: yes, whole UniProt chain shown

B1: Fatty acid-binding protein, brain wild type, P55051 (protein)
chain: MVDAFCATWKLTDSQNFDEYMKALGVGFATRQVGNVTKPTVIISQEGGKVVIRTQCTFKNTEISFQLGEEFEETSIDDRNCKSVIRLDGDKLIHVQKWDGKETNCVREIKDGKMVVTLTFGDVVAVRCYEKA
DimethylUrea, NaCl 1 M
  denaturant m value: 1.81 kcal/mol/M
  denaturant midpoint (higher = more stable): 5.36 M
  unfolding free energy: 40.6 kJ/mol
GdnHCl
  denaturant m value: 4.21 kcal/mol/M
  denaturant midpoint (higher = more stable): 1.33 M
  unfolding free energy: 23.3 kJ/mol
GdnSCN
  denaturant m value: 14 kcal/mol/M
  denaturant midpoint (higher = more stable): 0.73 M
  unfolding free energy: 42.7 kJ/mol
Urea
  denaturant m value: 1.82 kcal/mol/M and 2.17 kcal/mol/M
  denaturant midpoint (higher = more stable): 5.43 M and 5.79 M
  unfolding free energy: 41.5 kJ/mol and 52.5 kJ/mol
